From IntAct's records for PubMed 22307056

Biological target: fbw1b_human FBXW11 (UniProt Q9UKB1)
Sequence (Q9UKB1 whole entry): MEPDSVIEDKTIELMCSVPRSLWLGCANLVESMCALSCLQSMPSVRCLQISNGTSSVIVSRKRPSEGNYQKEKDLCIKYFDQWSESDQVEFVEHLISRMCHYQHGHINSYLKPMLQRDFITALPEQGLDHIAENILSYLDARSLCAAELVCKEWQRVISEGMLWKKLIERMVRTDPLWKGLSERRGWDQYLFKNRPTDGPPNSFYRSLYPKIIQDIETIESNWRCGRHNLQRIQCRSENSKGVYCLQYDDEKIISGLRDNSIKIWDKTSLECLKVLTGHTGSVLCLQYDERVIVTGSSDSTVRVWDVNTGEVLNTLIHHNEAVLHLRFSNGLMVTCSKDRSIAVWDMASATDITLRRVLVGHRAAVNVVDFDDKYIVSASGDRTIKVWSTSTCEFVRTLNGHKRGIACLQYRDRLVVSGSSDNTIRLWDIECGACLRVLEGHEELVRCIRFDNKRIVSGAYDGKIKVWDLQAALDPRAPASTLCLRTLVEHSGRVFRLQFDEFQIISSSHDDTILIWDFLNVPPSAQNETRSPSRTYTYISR

Sequence of Krueppel-like factor 4 (Mus musculus), Q60793 S132A (Q60793 whole entry S132A): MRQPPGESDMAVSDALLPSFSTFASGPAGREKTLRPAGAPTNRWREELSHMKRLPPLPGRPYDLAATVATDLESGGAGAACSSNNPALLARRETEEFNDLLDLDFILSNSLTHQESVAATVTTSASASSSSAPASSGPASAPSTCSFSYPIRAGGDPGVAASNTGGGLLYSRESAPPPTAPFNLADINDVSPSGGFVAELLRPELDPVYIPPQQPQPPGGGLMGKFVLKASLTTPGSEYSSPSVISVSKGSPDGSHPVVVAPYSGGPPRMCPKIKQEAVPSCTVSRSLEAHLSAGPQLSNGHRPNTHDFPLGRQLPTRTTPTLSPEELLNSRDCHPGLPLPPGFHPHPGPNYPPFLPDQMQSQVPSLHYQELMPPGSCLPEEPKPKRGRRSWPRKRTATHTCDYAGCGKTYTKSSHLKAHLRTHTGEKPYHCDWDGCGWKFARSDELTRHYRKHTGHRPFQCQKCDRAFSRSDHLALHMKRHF
Sequence of Krueppel-like factor 4 (Mus musculus), Q60793 L89A;R91A;R92A;L101A;L103A (Q60793 whole entry L89A/R91A/R92A/L101A/L103A): as the sequence (Q60793 whole entry S132A) above, with L89A, R91A, R92A, L101A, L103A, A132S counted along it
Sequence of Krueppel-like factor 4 (Mus musculus), Q60793 S140A (Q60793 whole entry S140A): as the sequence (Q60793 whole entry S132A) above, with A132S, S140A counted along it
Sequence of Krueppel-like factor 4 (Mus musculus), Q60793 L89A;R91A;R92A (Q60793 whole entry L89A/R91A/R92A): as the sequence (Q60793 whole entry S132A) above, with L89A, R91A, R92A, A132S counted along it
Sequence of Krueppel-like factor 4 (Mus musculus), Q60793 L101A;L103A (Q60793 whole entry L101A/L103A): as the sequence (Q60793 whole entry S132A) above, with L101A, L103A, A132S counted along it
Sequence of Krueppel-like factor 4 (Mus musculus), Q60793 S136A (Q60793 whole entry S136A): as the sequence (Q60793 whole entry S132A) above, with A132S, S136A counted along it

effect of a mutation on the interaction | Substance
decreasing interaction strength | Krueppel-like factor 4 (Mus musculus), Q60793 S132A
decreasing interaction strength | Krueppel-like factor 4 (Mus musculus), Q60793 S136A
decreasing interaction strength | Krueppel-like factor 4 (Mus musculus), Q60793 S140A

Biological target: mk03_mouse Mapk3 (UniProt Q63844)
Sequence (Q63844 whole entry): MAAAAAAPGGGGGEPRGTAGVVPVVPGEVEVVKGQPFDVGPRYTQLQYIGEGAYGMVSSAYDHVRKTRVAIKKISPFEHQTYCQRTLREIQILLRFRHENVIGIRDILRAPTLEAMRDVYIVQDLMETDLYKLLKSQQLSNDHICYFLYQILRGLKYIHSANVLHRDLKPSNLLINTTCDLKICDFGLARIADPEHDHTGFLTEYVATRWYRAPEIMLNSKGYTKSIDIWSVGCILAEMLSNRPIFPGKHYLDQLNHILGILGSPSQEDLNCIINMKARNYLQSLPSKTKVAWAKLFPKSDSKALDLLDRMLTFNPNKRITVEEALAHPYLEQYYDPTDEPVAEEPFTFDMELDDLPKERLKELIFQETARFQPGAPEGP

effect of a mutation on the interaction | Substance
disrupting interaction strength | Krueppel-like factor 4 (Mus musculus), Q60793 L89A;R91A;R92A
disrupting interaction strength | Krueppel-like factor 4 (Mus musculus), Q60793 L89A;R91A;R92A;L101A;L103A
decreasing interaction strength | Krueppel-like factor 4 (Mus musculus), Q60793 L101A;L103A
